The values that follow come from the RNAGym collection of RNA variant scans (doi:10.7554/elife.80360).

The chains are these.
B1: Hammerhead Ribozyme (parent)
chain: ACCGGAUGUGCUUUCCGGUCUGAUGAGUCCGUGAGGACGAAACAG

The variants in the data set derive from B1. As to the kind of experiment: self-cleavage, relative activity (ratio to wild type); higher = more cleavage; co-transcriptional.
For the variant A1G A6C, the self-cleavage amounted to 0.838.

For the variant A1G A6G, the self-cleavage was 1.5.

In the case of A1G A6U, the self-cleavage was determined as 1.08.

On to A1C G31C, for which the self-cleavage turned out to be 0.503.

As for A1C G31A, the self-cleavage turned out to be 0.454.

Take A1C G31U: the self-cleavage was determined as 0.561.

With A1C G5U, the self-cleavage turned out to be 0.444.

In the case of A1C G5A, the self-cleavage was found to be 0.483.

As to A1C G5C, the self-cleavage came to 0.286.

As for A1C C30G, the self-cleavage is 0.34.

As for A1C C30A, the self-cleavage was found to be 0.4.

In the case of A1C C30U, the self-cleavage turned out to be 0.364.

Take A1C A42C: the self-cleavage amounted to 0.336.

On to A1C A42U, for which the self-cleavage turned out to be 0.322.

With A1C A42G, the self-cleavage was 0.367.

Turning to A1G A40C, the self-cleavage was 0.691.

On to A1G A40U, for which the self-cleavage stood at 0.458.

Turning to A1G A40G, the self-cleavage was 0.388.

A1C U21G: the self-cleavage worked out at 0.337.

As to A1C U21C, the self-cleavage came to 0.293.

As for A1C U21A, the self-cleavage is 0.343.

For the variant A1C A41U, the self-cleavage is 0.341.

As to A1C A41C, the self-cleavage worked out at 0.372.

Regarding A1C A41G, the self-cleavage worked out at 0.328.

With A1C U28C, the self-cleavage was determined as 0.405.

Turning to A1C U28A, the self-cleavage stood at 0.389.

For the variant A1C U28G, the self-cleavage was found to be 0.302.

In the case of A1C C3A, the self-cleavage is 0.426.

Take A1C C3G: the self-cleavage came out at 0.549.

Turning to A1C C3U, the self-cleavage worked out at 0.345.

Regarding A1G A37G, the self-cleavage worked out at 1.23.

As for A1G A37C, the self-cleavage worked out at 1.64.

A1G A37U: the self-cleavage is 1.02.

On to A1G A42C, for which the self-cleavage is 0.361.

For A1G A42U, the self-cleavage worked out at 0.425.

Take A1G A42G: the self-cleavage stood at 0.344.

As to A1C C20U, the self-cleavage turned out to be 0.376.

On to A1C C20A, for which the self-cleavage is 0.349.

A1C C20G: the self-cleavage is 0.354.

As to A1G C15G, the self-cleavage came to 0.996.

A1G C15U: the self-cleavage stood at 1.68.

With A1G C15A, the self-cleavage was determined as 1.06.

A1G: the self-cleavage is 1.79.

For the variant A1G C20A, the self-cleavage was determined as 0.54.

Consider A1G C20U, for which the self-cleavage was found to be 0.971.

Regarding A1G C20G, the self-cleavage is 0.358.

For the variant A1C G27C, the self-cleavage turned out to be 0.357.

In the case of A1C G27A, the self-cleavage was 0.332.

In the case of A1C G27U, the self-cleavage was 0.328.

In the case of A1C U14C, the self-cleavage stood at 0.331.

Consider A1C U14G, for which the self-cleavage was 0.426.

For A1C U14A, the self-cleavage worked out at 0.348.

With A1C G18C, the self-cleavage came out at 0.399.

In the case of A1C G18A, the self-cleavage came out at 0.434.

Consider A1C G18U, for which the self-cleavage is 0.353.

Consider A1C U7A, for which the self-cleavage was 0.29.

Consider A1C U7C, for which the self-cleavage came to 0.38.

For A1C U7G, the self-cleavage was 0.377.

Regarding A1G A23U, the self-cleavage was 0.424.

With A1G A23C, the self-cleavage is 0.96.

On to A1G A23G, for which the self-cleavage turned out to be 0.413.

In the case of A1C A37U, the self-cleavage was 0.34.

With A1C A37C, the self-cleavage is 0.404.

Regarding A1C A37G, the self-cleavage is 0.348.

Take A1C U13C: the self-cleavage was determined as 0.513.

Turning to A1C U13A, the self-cleavage is 0.557.

Turning to A1C U13G, the self-cleavage was 0.556.

With A1G A44C, the self-cleavage was 0.858.

With A1G A44U, the self-cleavage was 0.968.

On to A1G A44G, for which the self-cleavage worked out at 2.11.

As to A1C G4U, the self-cleavage came out at 0.353.

On to A1C G4A, for which the self-cleavage is 0.406.

On to A1C G4C, for which the self-cleavage amounted to 0.472.

Regarding A1C U9A, the self-cleavage was found to be 0.399.

On to A1C U9G, for which the self-cleavage came out at 0.346.

Regarding A1C U9C, the self-cleavage worked out at 0.394.

A1C C29U: the self-cleavage is 0.402.

As to A1C C29G, the self-cleavage was 0.341.

On to A1C C29A, for which the self-cleavage was 0.31.

Turning to A1C U24C, the self-cleavage worked out at 0.34.

A1C U24A: the self-cleavage stood at 0.471.

Take A1C U24G: the self-cleavage was 0.368.

A1G C11A: the self-cleavage turned out to be 2.06.

As to A1G C11U, the self-cleavage turned out to be 1.33.

For A1G C11G, the self-cleavage stood at 2.12.

A1C G33A: the self-cleavage came out at 0.57.

With A1C G33U, the self-cleavage is 0.561.

Take A1C G33C: the self-cleavage was 0.321.

With A1C G17C, the self-cleavage came out at 0.391.

Turning to A1C G17A, the self-cleavage was 0.391.

Take A1C G17U: the self-cleavage was 0.346.

In the case of A1C G10U, the self-cleavage came to 0.339.

For A1C G10C, the self-cleavage turned out to be 0.397.

In the case of A1C G10A, the self-cleavage is 0.38.

For the variant A1C C43A, the self-cleavage is 0.295.

In the case of A1C C43G, the self-cleavage is 0.285.

Consider A1C C43U, for which the self-cleavage turned out to be 0.5.

Regarding A1C G36A, the self-cleavage came out at 0.394.

Consider A1C G36U, for which the self-cleavage came out at 0.401.

Take A1C G36C: the self-cleavage worked out at 0.365.

For A1G C3U, the self-cleavage was 1.34.

As for A1G C3A, the self-cleavage is 0.699.

For A1G C3G, the self-cleavage came out at 0.586.

For A1G C16U, the self-cleavage turned out to be 1.9.

As to A1G C16A, the self-cleavage came to 1.15.

As for A1G C16G, the self-cleavage was determined as 0.778.

Consider A1C C38U, for which the self-cleavage came to 0.495.

In the case of A1C C38A, the self-cleavage was 0.408.

For A1C C38G, the self-cleavage worked out at 0.39.

As to A1G A26U, the self-cleavage was found to be 0.971.

With A1G A26C, the self-cleavage is 0.571.

In the case of A1G A26G, the self-cleavage amounted to 0.397.

In the case of A1C G45U, the self-cleavage is 0.437.

For the variant A1C G45C, the self-cleavage is 0.441.

For the variant A1C G45A, the self-cleavage worked out at 0.578.

With A1C C11G, the self-cleavage was 0.395.

Turning to A1C C11U, the self-cleavage came out at 0.411.

Take A1C C11A: the self-cleavage was determined as 0.36.

Turning to A1C G39C, the self-cleavage came out at 0.344.

As to A1C G39A, the self-cleavage worked out at 0.438.

In the case of A1C G39U, the self-cleavage was 0.341.

Take A1C G35A: the self-cleavage is 0.404.

As for A1C G35C, the self-cleavage was found to be 0.406.

Consider A1C G35U, for which the self-cleavage came to 0.435.

As to A1C A40G, the self-cleavage was 0.298.

Regarding A1C A40U, the self-cleavage is 0.484.

As for A1C A40C, the self-cleavage stood at 0.446.

A1G A34C: the self-cleavage worked out at 1.1.

A1G A34U: the self-cleavage was 1.47.

Consider A1G A34G, for which the self-cleavage turned out to be 1.5.

For the variant A1C A44G, the self-cleavage is 0.594.

In the case of A1C A44U, the self-cleavage is 0.377.

As to A1C A44C, the self-cleavage was 0.376.

For the variant A1C C15A, the self-cleavage amounted to 0.497.

For the variant A1C C15G, the self-cleavage was found to be 0.43.

Consider A1C C15U, for which the self-cleavage came out at 0.408.

In the case of A1C G22C, the self-cleavage was found to be 0.352.

Turning to A1C G22A, the self-cleavage stood at 0.396.

For A1C G22U, the self-cleavage worked out at 0.466.

As for A1C U19C, the self-cleavage stood at 0.365.

Take A1C U19G: the self-cleavage is 1.12.

Turning to A1C U19A, the self-cleavage amounted to 0.344.

As for A1G A41G, the self-cleavage is 0.436.

As for A1G A41C, the self-cleavage turned out to be 0.461.

As for A1G A41U, the self-cleavage was 0.42.

Take A1C G8A: the self-cleavage stood at 0.409.

In the case of A1C G8C, the self-cleavage was 0.432.

For A1C G8U, the self-cleavage is 0.465.

For A1C A34U, the self-cleavage worked out at 0.384.

On to A1C U12A, for which the self-cleavage was found to be 0.471.

Turning to A1C U12G, the self-cleavage is 0.325.

Regarding A1C U12C, the self-cleavage was determined as 0.373.

Take A1C U32C: the self-cleavage was determined as 0.514.

As for A1C U32G, the self-cleavage came out at 0.302.

As to A1C U32A, the self-cleavage is 0.363.

For the variant A1G C2A, the self-cleavage stood at 0.881.

With A1G C2U, the self-cleavage was 2.07.

Turning to A1G C2G, the self-cleavage is 0.735.

For the variant A1C C2A, the self-cleavage was found to be 1.75.

Consider A1C C2G, for which the self-cleavage came out at 0.524.

For A1C C2U, the self-cleavage is 2.17.

As to A1C C16A, the self-cleavage worked out at 0.453.

Turning to A1C C16G, the self-cleavage was determined as 0.351.

Take A1C C16U: the self-cleavage stood at 0.347.

On to A1C G25A, for which the self-cleavage was found to be 0.255.

For the variant A1C G25U, the self-cleavage came to 0.377.

For A1C G25C, the self-cleavage stood at 0.313.
